Test results reported in US20200199647A1 (published 2020).
Read-outs that look alike come from different tables or passages of the source. Blank lines part the entries; values can stand above or below the binder they belong to.

Tests used:
[1] = target: T1, PP1c (human PP1cα amino acids 7-330, N-terminal Thio6/His6 tag) (human, UniProt P62136 7-330); experiment: thermophoresis
[2] = target: T1, PP1c (human PP1cα amino acids 7-330, …); experiment: thermophoresis; remark: listed apart in the source

T1 sequence (P62136 other isoform, or with tags, fused parts or gaps): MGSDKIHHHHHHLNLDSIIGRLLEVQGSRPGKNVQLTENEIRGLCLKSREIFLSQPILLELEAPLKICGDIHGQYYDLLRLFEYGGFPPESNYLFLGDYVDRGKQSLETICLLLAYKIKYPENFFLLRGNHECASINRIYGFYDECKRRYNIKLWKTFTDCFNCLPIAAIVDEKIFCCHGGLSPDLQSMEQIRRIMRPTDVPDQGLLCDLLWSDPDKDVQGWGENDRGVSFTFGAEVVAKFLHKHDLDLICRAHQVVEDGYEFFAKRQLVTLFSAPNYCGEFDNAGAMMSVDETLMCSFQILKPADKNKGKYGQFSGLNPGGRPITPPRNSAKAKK

- Kd [1]: 960 nM
B1: R15B^C (human PPP1R15B amino acids 636-698, N-terminal MBP-tag, C-terminal His6-tag) (other)
chain: VKRKKVTFLEEVTEYYISGDEDRKGPWEEFARDGCRFQKRIQETEDAIGYCLTFEHRERMFNRHHHHHH

- Kd [2]: 900 nM
B2: R15B (human PPP1R15B amino acids 340-698, N-terminal MBP-tag, C-terminal His6-tag) (other)
chain: RDNPTQFVPAAGDIPGNTQESTEEKIELLTTEVPLALEEESPSEGCPSSEIPMEKEPGEGRISVVDYSYLEGDLPISARPACSNKLIDYILGGASSDLETSSDPEGEDWDEEAEDDGFDSDSSLSDSDLEQDPEGLHLWNSFCSVDPYNPQNFTATIQTAARIVPEEPSDSEKDLSGKSDLENSSQSGSLPETPEHSSGEEDDWESSADEAESLKLWNSFCNSDDPYNPLNFKAPFQTSGENEKGCRDSKTPSESIVAISECHTLLSCKVQLLGSQESECPDSVQRDVLSGGRHTHVKRKKVTFLEEVTEYYISGDEDRKGPWEEFARDGCRFQKRIQETEDAIGYCLTFEHRERMFNRHHHHHH
